Measured values from paper PMC6386767, “Characterization of recombinant fructose-1,6-bisphosphatase gene mutations: evidence of inhibition/activation of FBPase protein by gene mutation” (Bioscience Reports, 2019).

Legend:
Type in all cases: binding
[1] = molecular target: T1, pig kidney FBPase K112A (Sus scrofa, UniProt P00636, K113A); experiment: Differential scanning fluorimetry, K112A mutant; settings: no ligand
T1 construct: His6 (C); made in house; host or cells: Escherichia coli BL21 (DE3)
T1 sequence (P00636 1-338 K113A): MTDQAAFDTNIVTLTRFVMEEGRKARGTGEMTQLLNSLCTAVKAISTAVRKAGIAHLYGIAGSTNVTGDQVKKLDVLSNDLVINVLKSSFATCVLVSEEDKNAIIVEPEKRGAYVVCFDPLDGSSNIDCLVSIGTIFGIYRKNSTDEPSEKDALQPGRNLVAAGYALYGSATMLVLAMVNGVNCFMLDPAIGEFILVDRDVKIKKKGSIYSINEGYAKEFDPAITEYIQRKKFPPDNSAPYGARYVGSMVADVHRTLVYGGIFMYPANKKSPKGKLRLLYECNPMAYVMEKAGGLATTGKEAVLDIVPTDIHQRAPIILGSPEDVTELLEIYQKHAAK
Experimental: (§1) Differential scanning fluorimetry (DSF) assays were designed and implemented to run on WT and each mutant for the purpose of determining relative stabilities by melting point, and to detect structural changes in the enzymes upon ligand binding. Thermal shift assays were performed with a Light Cycler 96 System Real-Time PCR machine (Roche) using Sypro-Orange dye (Invitrogen) and thermal ramping (0.25°C per min between 20 and 85°C). […] Data were processed using the Boltzmann equation to generate sigmoidal denaturation curves, and average Tm/ΔTm values were calculated as previously described using GraphPad Prism software package.

[2] = molecular target: T2, pig kidney FBPase M177A (Sus scrofa, UniProt P00636, M178A); experiment: Differential scanning fluorimetry, M177A mutant; settings: enzyme M177A 5 µM, no ligand
T2 construct: His6 (C); made in house; host or cells: Escherichia coli BL21 (DE3)
T2 sequence (P00636 1-338 M178A): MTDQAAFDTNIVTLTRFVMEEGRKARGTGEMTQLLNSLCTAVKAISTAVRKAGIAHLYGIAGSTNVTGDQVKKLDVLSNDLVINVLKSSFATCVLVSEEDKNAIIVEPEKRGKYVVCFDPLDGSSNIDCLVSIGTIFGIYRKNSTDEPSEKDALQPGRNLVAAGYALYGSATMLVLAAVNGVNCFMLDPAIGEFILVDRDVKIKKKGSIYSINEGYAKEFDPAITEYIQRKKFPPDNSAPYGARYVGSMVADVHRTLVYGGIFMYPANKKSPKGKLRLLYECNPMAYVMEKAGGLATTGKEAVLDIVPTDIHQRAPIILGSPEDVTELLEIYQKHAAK
Experimental: as §1

[3] = molecular target: T3, pig kidney FBPase WT (Sus scrofa, UniProt P00636); experiment: Differential scanning fluorimetry, WT enzyme; settings: enzyme WT 5 µM, no ligand
T3 construct: His6 (C); made in house; host or cells: Escherichia coli BL21 (DE3)
T3 sequence (P00636 1-338): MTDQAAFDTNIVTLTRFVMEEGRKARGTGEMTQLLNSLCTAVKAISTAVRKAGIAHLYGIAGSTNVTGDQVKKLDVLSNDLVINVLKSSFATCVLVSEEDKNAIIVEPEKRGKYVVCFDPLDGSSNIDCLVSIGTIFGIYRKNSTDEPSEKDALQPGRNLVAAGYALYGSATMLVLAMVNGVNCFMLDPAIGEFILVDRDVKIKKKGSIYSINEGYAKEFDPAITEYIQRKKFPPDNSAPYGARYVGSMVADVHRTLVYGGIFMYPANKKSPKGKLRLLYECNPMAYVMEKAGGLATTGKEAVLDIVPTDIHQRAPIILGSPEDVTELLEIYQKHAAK
Experimental: as §1

[4] = molecular target: T4, pig kidney FBPase M248D (Sus scrofa, UniProt P00636, M249D); experiment: Differential scanning fluorimetry, M248D mutant; settings: enzyme M248D 5 µM, no ligand
T4 construct: His6 (C); made in house; host or cells: Escherichia coli BL21 (DE3)
T4 sequence (P00636 1-338 M249D): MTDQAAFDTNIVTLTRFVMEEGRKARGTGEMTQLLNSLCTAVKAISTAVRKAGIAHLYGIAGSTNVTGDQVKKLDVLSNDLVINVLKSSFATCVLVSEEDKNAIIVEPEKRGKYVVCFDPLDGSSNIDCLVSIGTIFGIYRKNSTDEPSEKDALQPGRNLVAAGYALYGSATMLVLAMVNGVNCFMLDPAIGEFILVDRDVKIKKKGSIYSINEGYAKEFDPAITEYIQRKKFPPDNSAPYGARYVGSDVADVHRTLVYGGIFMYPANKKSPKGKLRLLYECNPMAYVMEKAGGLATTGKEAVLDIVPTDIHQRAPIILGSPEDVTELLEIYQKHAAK
Experimental: as §1

[5] = molecular target: T5, pig kidney FBPase Y164A (Sus scrofa, UniProt P00636, Y165A); experiment: Differential scanning fluorimetry, Y164A mutant; settings: enzyme Y164A 5 µM, no ligand
T5 construct: His6 (C); made in house; host or cells: Escherichia coli BL21 (DE3)
T5 sequence (P00636 1-338 Y165A): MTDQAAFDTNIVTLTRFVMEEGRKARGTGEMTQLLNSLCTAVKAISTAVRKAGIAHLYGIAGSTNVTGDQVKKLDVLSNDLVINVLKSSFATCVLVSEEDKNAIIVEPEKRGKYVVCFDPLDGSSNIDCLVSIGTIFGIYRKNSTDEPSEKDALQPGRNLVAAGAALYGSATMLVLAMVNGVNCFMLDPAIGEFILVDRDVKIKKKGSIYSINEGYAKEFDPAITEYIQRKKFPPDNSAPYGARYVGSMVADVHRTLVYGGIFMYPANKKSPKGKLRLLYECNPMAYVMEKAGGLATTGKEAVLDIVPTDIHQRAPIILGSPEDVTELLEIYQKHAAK
Experimental: as §1

[6] = molecular target: T6, pig kidney FBPase Y113A (Sus scrofa, UniProt P00636, Y114A); experiment: Differential scanning fluorimetry, Y113A mutant; settings: no ligand
T6 construct: His6 (C); made in house; host or cells: Escherichia coli BL21 (DE3)
T6 sequence (P00636 1-338 Y114A): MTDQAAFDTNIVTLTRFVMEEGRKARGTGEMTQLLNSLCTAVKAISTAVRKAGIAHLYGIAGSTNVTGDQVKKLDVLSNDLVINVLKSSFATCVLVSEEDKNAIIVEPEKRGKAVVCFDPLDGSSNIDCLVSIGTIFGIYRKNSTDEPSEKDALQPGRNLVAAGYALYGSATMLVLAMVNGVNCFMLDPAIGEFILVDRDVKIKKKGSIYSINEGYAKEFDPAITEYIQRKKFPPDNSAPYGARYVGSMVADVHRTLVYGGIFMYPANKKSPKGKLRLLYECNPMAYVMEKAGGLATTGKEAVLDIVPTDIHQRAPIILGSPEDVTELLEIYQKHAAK
Experimental: as §1

[7] = molecular target: T7, pig kidney FBPase L73A (Sus scrofa, UniProt P00636, L74A); experiment: Differential scanning fluorimetry, L73A mutant; settings: enzyme L73A 5 µM, no ligand
T7 construct: His6 (C); made in house; host or cells: Escherichia coli BL21 (DE3)
T7 sequence (P00636 1-338 L74A): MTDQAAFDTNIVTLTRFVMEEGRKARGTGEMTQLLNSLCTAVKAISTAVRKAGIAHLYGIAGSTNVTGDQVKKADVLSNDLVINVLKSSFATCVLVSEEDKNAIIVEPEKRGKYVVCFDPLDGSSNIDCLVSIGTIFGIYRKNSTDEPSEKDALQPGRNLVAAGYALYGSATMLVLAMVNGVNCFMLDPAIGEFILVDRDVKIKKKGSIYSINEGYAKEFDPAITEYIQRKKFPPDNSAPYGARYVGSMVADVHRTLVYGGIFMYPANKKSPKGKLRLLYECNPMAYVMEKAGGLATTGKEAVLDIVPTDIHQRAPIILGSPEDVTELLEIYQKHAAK
Experimental: as §1

B1: K112A: pig kidney FBPase mutant, lysine to alanine, AMP-binding site (protein, UniProt P00636 2-338, looked up, variant K112A)
Fructose-1,6-bisphosphatase 1: TDQAAFDTNIVTLTRFVMEEGRKARGTGEMTQLLNSLCTAVKAISTAVRKAGIAHLYGIAGSTNVTGDQVKKLDVLSNDLVINVLKSSFATCVLVSEEDKNAIIVEPEKRGAYVVCFDPLDGSSNIDCLVSIGTIFGIYRKNSTDEPSEKDALQPGRNLVAAGYALYGSATMLVLAMVNGVNCFMLDPAIGEFILVDRDVKIKKKGSIYSINEGYAKEFDPAITEYIQRKKFPPDNSAPYGARYVGSMVADVHRTLVYGGIFMYPANKKSPKGKLRLLYECNPMAYVMEKAGGLATTGKEAVLDIVPTDIHQRAPIILGSPEDVTELLEIYQKHAAK
- melting point, No Ligand ([1]; enzyme K112A 5 µM): 51.0 (± 2.50) °C
- decrease in melting temperature compared with WT ([1]; enzyme K112A): approximately 6 °

B2: M177A: pig kidney FBPase mutant, methionine to alanine, interfacial (protein, UniProt P00636 2-338, looked up, variant M177A)
Fructose-1,6-bisphosphatase 1: TDQAAFDTNIVTLTRFVMEEGRKARGTGEMTQLLNSLCTAVKAISTAVRKAGIAHLYGIAGSTNVTGDQVKKLDVLSNDLVINVLKSSFATCVLVSEEDKNAIIVEPEKRGKYVVCFDPLDGSSNIDCLVSIGTIFGIYRKNSTDEPSEKDALQPGRNLVAAGYALYGSATMLVLAAVNGVNCFMLDPAIGEFILVDRDVKIKKKGSIYSINEGYAKEFDPAITEYIQRKKFPPDNSAPYGARYVGSMVADVHRTLVYGGIFMYPANKKSPKGKLRLLYECNPMAYVMEKAGGLATTGKEAVLDIVPTDIHQRAPIILGSPEDVTELLEIYQKHAAK
- melting point, No Ligand [2]: 54.2 (± 1.75) °C

B3: WT: recombinant wild-type pig kidney FBPase enzyme (protein, UniProt P00636 2-338, looked up)
Fructose-1,6-bisphosphatase 1: TDQAAFDTNIVTLTRFVMEEGRKARGTGEMTQLLNSLCTAVKAISTAVRKAGIAHLYGIAGSTNVTGDQVKKLDVLSNDLVINVLKSSFATCVLVSEEDKNAIIVEPEKRGKYVVCFDPLDGSSNIDCLVSIGTIFGIYRKNSTDEPSEKDALQPGRNLVAAGYALYGSATMLVLAMVNGVNCFMLDPAIGEFILVDRDVKIKKKGSIYSINEGYAKEFDPAITEYIQRKKFPPDNSAPYGARYVGSMVADVHRTLVYGGIFMYPANKKSPKGKLRLLYECNPMAYVMEKAGGLATTGKEAVLDIVPTDIHQRAPIILGSPEDVTELLEIYQKHAAK
- melting point, No Ligand [3]: 56.0 (± 2.75) °C

B4: M248D: pig kidney FBPase active site mutant Met^248 to aspartic acid (protein, UniProt P00636 2-338, looked up, variant M248D)
Fructose-1,6-bisphosphatase 1: TDQAAFDTNIVTLTRFVMEEGRKARGTGEMTQLLNSLCTAVKAISTAVRKAGIAHLYGIAGSTNVTGDQVKKLDVLSNDLVINVLKSSFATCVLVSEEDKNAIIVEPEKRGKYVVCFDPLDGSSNIDCLVSIGTIFGIYRKNSTDEPSEKDALQPGRNLVAAGYALYGSATMLVLAMVNGVNCFMLDPAIGEFILVDRDVKIKKKGSIYSINEGYAKEFDPAITEYIQRKKFPPDNSAPYGARYVGSDVADVHRTLVYGGIFMYPANKKSPKGKLRLLYECNPMAYVMEKAGGLATTGKEAVLDIVPTDIHQRAPIILGSPEDVTELLEIYQKHAAK
- melting point, No Ligand [4]: 62.0 (± 1.25) °C

B5: Y164A: pig kidney FBPase mutant, tyrosine to alanine, interfacial (protein, UniProt P00636 2-338, looked up, variant Y164A)
Fructose-1,6-bisphosphatase 1: TDQAAFDTNIVTLTRFVMEEGRKARGTGEMTQLLNSLCTAVKAISTAVRKAGIAHLYGIAGSTNVTGDQVKKLDVLSNDLVINVLKSSFATCVLVSEEDKNAIIVEPEKRGKYVVCFDPLDGSSNIDCLVSIGTIFGIYRKNSTDEPSEKDALQPGRNLVAAGAALYGSATMLVLAMVNGVNCFMLDPAIGEFILVDRDVKIKKKGSIYSINEGYAKEFDPAITEYIQRKKFPPDNSAPYGARYVGSMVADVHRTLVYGGIFMYPANKKSPKGKLRLLYECNPMAYVMEKAGGLATTGKEAVLDIVPTDIHQRAPIILGSPEDVTELLEIYQKHAAK
- melting point, No Ligand [5]: 55.4 (± 2.25) °C

B6: Y113A: pig kidney FBPase mutant, tyrosine to alanine, AMP-binding site (protein, UniProt P00636 2-338, looked up, variant Y113A)
Fructose-1,6-bisphosphatase 1: TDQAAFDTNIVTLTRFVMEEGRKARGTGEMTQLLNSLCTAVKAISTAVRKAGIAHLYGIAGSTNVTGDQVKKLDVLSNDLVINVLKSSFATCVLVSEEDKNAIIVEPEKRGKAVVCFDPLDGSSNIDCLVSIGTIFGIYRKNSTDEPSEKDALQPGRNLVAAGYALYGSATMLVLAMVNGVNCFMLDPAIGEFILVDRDVKIKKKGSIYSINEGYAKEFDPAITEYIQRKKFPPDNSAPYGARYVGSMVADVHRTLVYGGIFMYPANKKSPKGKLRLLYECNPMAYVMEKAGGLATTGKEAVLDIVPTDIHQRAPIILGSPEDVTELLEIYQKHAAK
- melting point, No Ligand ([6]; enzyme Y113A 5 µM): 50.0 (± 2.25) °C
- decrease in melting temperature compared with WT ([6]; enzyme Y113A): approximately 6 °

B7: L73A: pig kidney FBPase mutant Leu^73 to alanine, near PFE tetramer interface site (protein, UniProt P00636 2-338, looked up, variant L73A)
Fructose-1,6-bisphosphatase 1: TDQAAFDTNIVTLTRFVMEEGRKARGTGEMTQLLNSLCTAVKAISTAVRKAGIAHLYGIAGSTNVTGDQVKKADVLSNDLVINVLKSSFATCVLVSEEDKNAIIVEPEKRGKYVVCFDPLDGSSNIDCLVSIGTIFGIYRKNSTDEPSEKDALQPGRNLVAAGYALYGSATMLVLAMVNGVNCFMLDPAIGEFILVDRDVKIKKKGSIYSINEGYAKEFDPAITEYIQRKKFPPDNSAPYGARYVGSMVADVHRTLVYGGIFMYPANKKSPKGKLRLLYECNPMAYVMEKAGGLATTGKEAVLDIVPTDIHQRAPIILGSPEDVTELLEIYQKHAAK
- melting point, No Ligand [7]: 55.8 (± 2.50) °C
